Publication doi:10.1101/2022.06.18.496527 (2022)

Target: AVR-Pii effector domain (residues 20 to 70), purified (Magnaporthe oryzae)
Assay: ITC

B1: OsExo70F2^Δ83 (residues 84 to 689) (domain or fragment)
chain: ISAAAFDAAEQLIQVWDGTPEALVFEATEDEVAEYLSAVDVAIEHLARGSGGGAGGAGSSSSSTAGRAGVAVQLAMARLEEELRHLMVRHAVPLDPTGLFFSLRRLSLGSMDDLDTSSEFDAATPHSIDVAPETARGGPLVNPFEDQVFDPVRPEAVDDLRAIADRMARAGYSRELADAYCGIRRDLLDEYLSALGVERLSIDEVQRIEWKHLNDKMKKWVQAVKTVVRVLLAGERRLCDQVLSVSDELREECFIESTKGCIMQILSFGDAVAVCPRSPEKLSRILDMYEALAEVIPEMKDLCLGSSGDGVISDVQANLDRLGDAIRGTLFEFGKVLQLESSRRAMTAGEIHPMTRYVMNYLRLLVVYSDTLDALLDDNADDQIDLARAEDQDQEHLESMTPLGKRLLKLISYLEANLEEKSKLYEDSALECIFSMNNLLYIVQKVRDSELGKILGDHWVKRRNGKIRQYSKSYLRISWMKVLSFLKDDGHGSGSGSSSGSGSGHSSSRMSIKEKFKNFNLAFEEIYRNQTTWKVPDPQLREELKISISENVIPAYRAFLGRYGSQVDGGRNSGKYIKYTPEDLESQLSDLFEGAPGPANHSRRRT
- Kd: < 1 nM
